Laboratory results from patent publication US20190314479A1.

The substances below were run against HLA-A2 molecules (assay: T2A2 peptide binding assay to HLA-A2, negative control).

For NEG (Negative control) (peptide), which T2A2 Binding is on record?
The T2A2 Binding was 812.

Each substance was assayed against HLA-A2 molecules (assay: T2A2 peptide binding assay to HLA-A2).

With “HPV-16 E6 agonist peptide E6-A1 (L19V) (peptide; other documents disagree on this pair)” as the substance, how does the T2A2 Binding read?
The T2A2 Binding was 1340.

How did the T2A2 Binding turn out when “HPV-16 E7 agonist peptide E7-A3 (T86V) (peptide; other documents disagree on this pair)” was run?
The T2A2 Binding was 1260.

How did the T2A2 Binding turn out when “HPV-16 E6 agonist peptide E6-A2 (C80V) (peptide; other documents disagree on this pair)” was run?
Its T2A2 Binding is 877.

Which T2A2 Binding does the source give for “HPV-16 E6 agonist peptide E6-A3 (Q91L/L99V) (peptide; other documents disagree on this pair)” here?
The T2A2 Binding was 1280.

“HPV-16 E6 native peptide E6-1 (E6 11-19)” was tested. Which T2A2 Binding did it give?
Its T2A2 Binding is 853.

For “HPV-16 E7 agonist peptide E7-A1 (T19V) (peptide; other documents disagree on this pair)”, which T2A2 Binding is on record?
Its T2A2 Binding is 1170.

How did the T2A2 Binding turn out when “HPV-16 E7 agonist peptide E7-A2 (L15V) (peptide; other documents disagree on this pair)” was run?
The T2A2 Binding was 1530.
